Here are results for one molecule from article PMC10746227, “The two-component system WalKR provides an essential link between cell wall homeostasis and DNA replication in Staphylococcus aureus” (mBio, 2023).

For this assay, the target named is T1, WalK-LgBIT (native WalK) (S. aureus, UniProt Q2FKN7 1-608).
T1 construct: WalK, transmembrane sensor histidine kinase of the WalKR two-component system, S. aureus NRS384 (USA300); open reading frame with the stop codon removed; also called WalK Wt; source: S. aureus NRS384, from plasmid pLgBIT, in living cells
T1 sequence (looked up): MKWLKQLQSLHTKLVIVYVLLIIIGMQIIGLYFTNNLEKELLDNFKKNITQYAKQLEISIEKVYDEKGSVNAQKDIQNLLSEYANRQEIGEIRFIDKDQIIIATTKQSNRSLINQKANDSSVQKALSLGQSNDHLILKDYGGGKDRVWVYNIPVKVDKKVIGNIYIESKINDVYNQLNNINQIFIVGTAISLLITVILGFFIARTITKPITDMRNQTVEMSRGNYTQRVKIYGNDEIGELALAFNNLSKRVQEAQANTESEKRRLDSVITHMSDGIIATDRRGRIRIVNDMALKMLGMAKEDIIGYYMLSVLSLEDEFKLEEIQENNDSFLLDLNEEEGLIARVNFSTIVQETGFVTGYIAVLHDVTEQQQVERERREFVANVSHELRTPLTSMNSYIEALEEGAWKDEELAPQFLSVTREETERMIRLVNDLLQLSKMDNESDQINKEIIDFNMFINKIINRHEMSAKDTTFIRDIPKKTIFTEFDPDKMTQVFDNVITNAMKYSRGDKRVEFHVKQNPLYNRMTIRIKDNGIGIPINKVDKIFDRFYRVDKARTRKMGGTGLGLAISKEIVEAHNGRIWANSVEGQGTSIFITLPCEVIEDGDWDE
Briefly: split reporter (BiFC, NanoBiT); WalR-SmBIT (pSmBIT) and WalK-LgBIT (pLgBIT) alleles together in living S. aureus NRS384; LB with chloramphenicol, kanamycin and Nano-Glo substrate 1:5,000, 37°C, 96-well plate; OD600nm and light emission (RLU) read every 10 min over 8 h; lag and exponential phase. The note with it: partners not purified.

B1: WalR_(T101A)-SmBIT (natural protein)
chain: MARKVVVVDDEKPIADILEFNLKKEGYDVYCAYDGNDAVDLIYEEEPDIVLLDIMLPGRDGMEVCREVRKKYEMPIIMLTAKDSEIDKVLGLELGADDYVAKPFSTRELIARVKANLRRHYSQPAQDTGNVTNEITIKDIVIYPDAYSIKKRGEDIELTHREFELFHYLSKHMGQVMTREHLLQTVWGYDYFGDVRTVDVTIRRLREKIEDDPSHPEYIVTRRGVGYFLQQHE
notes: WalR, response regulator, S. aureus NRS384 (USA300); open reading frame with the stop codon removed; also called "down" mutant; source: S. aureus NRS384, from plasmid pSmBIT, in living cells
As to B1, the “fold change of the maximal level of interaction against native WalK/WalR” value was found to be 1.5 fold.
